B1: NODAL: TGF-β family ligand that induces phosphorylation of SMAD2/3 (protein, UniProt Q96S42 238-347, looked up)
Nodal homolog: HHLPDRSQLCRKVKFQVDFNLIGWGSWIIYPKQYNAYRCEGECPNPVGEEFHPTNHAYIQSLLKRYQPHRVPSTCCAPVKTKPLSMLYVDNGRVLLDHHKDMIVEECGCL
B2: CRIPTO-1: soluble EGF-CFC Nodal co-receptor (protein, UniProt P13385 31-150, looked up)
Protein Cripto: LGHQEFARPSRGYLAFRDDSIWPQEEPAIRPRSSQRVPPMGIQHSKELNRTCCLNGGTCMLGSFCACPPSFYGRNCEHDVRKENCGSVPHDTWLPKKCSLCKCWHGQLRCFPQAFLPGCD

Test system: mammary epithelial cells
Test: 3D organotypic mammary organoid formation
Type: cell-based, mouse
Details: for organoid formation (frequency, number of colonies): Wnt-dependent organoid culture
Protocol: FIGS. 8A-8D. Autocrine and paracrine effects of NODAL and LEFTY1 in mammary epithelial cell populations. […] The sorted cells were grown in the 3D organotypic assays to test their organoid formation potential in the presence of NODAL. […] Each dot represents an organoid (n=3). […] Data are represented as median±S.D. Statistical analysis, One-way ANOVA with Dunnet's adjustment, **p<0.01.
FIGS. 9A-9F. Opposing effects of LEFTY1 and BMP7 in mammary organoid formation. […] Data are represented as median±S.D. Statistical analysis, one-way ANOVA with Dunnet's adjustment, *p<0.05; **p<0.01; ***p<0.001.
Since LEFTY1 and BMP7 were able to affect the branching of mammary glands, we hypothesized that the LEFTY1/BMP7 signaling axis may affect the proliferation of mammary epithelial cells. We exposed freshly dissociated mammary epithelial cells to NODAL, LEFTY1, BMP7 and CRIPTO-1 in a modified Wnt-dependent in vitro organoid culture system that was optimized for progenitor cell propagation (Zeng & Nusse, Cell Stem Cell 6, 568-577 (2010) and Jamieson et al., Development 144, 1065-1071 (2017)). In Xenopus, Wnt signaling controls the expression of Nodal and Cripto-1 during gastrulation. Consistent with the evolutionary conservation of the interaction between the Nodal and Wnt pathways (Branford et al., Curr Biol 12, 2136-2141 (2002)), NODAL had no effect on organoid formation in our Wnt-driven culture system (FIG. 8A).
In organoid cultures, the basal cells give rise to mixed phenotype colonies of luminal and basal cells. To prevent the formation of LEFTY1-expressing cells during organoid formation, genetic knockdown of LEFTY1 was done. To knock-down mouse LEFTY1, pSICO-R lentiviral vector was used (Ventura, PNAS, 2004). Different shRNAs were designed and cloned into pSICO-R. The target sequences of the shRNAs cloned were GGACAAGGCTGATGTGGAA (SEQ ID NO: 14) and GCAGGTTCCTGGTGTCAGA (SEQ ID NO: 15). The efficiency of knock-down was tested by transfecting HEK293T cells with pSICO-R-shLEFTY1 constructs with pEGFP-C3-LEFTY1 at 1:4 and 1:20 ratio. Decrease on GFP signal was used to calculate the percentage of inhibition of the shLEFTY sequences. […] (p<0.001 and p<0.01, respectively) (FIGS. 8C-8D and FIGS. 9E-9F).

Molecule | organoid formation (frequency, number of colonies) | effect on LEFTY1's increase of organoid formation (in combination with LEFTY1)
B1 | no effect | 
B2 | did not have a significant effect | enhanced

Source: US12012599B2, “Compositions and methods for modulating left-right differentiation factor (LEFTY) and bone morphogenic factor (BMP)” (CZ Biohub SF LLC, priority 2018, dated 2024)
